Reference: patent CN111662385A

Molecular target: human GPC3 recombinant protein (human) (UniProt P51654)
Test: BLI (ForteBio), antibody 5 ug/ml on anti-human IgG Fc sensor, GPC3 62.5-1000 nM

Kd: 1.74 nM
koff: 0.00024 s⁻¹
kon: 141000 M⁻¹ s⁻¹
Substance: hGC33(Codrituzumab) (antibody)
